Data reported in patent US20240059784A1 (Eli Lilly, published 2024).

T1: cynomolgus TfR ECD (cynomolgus)
T1 chain: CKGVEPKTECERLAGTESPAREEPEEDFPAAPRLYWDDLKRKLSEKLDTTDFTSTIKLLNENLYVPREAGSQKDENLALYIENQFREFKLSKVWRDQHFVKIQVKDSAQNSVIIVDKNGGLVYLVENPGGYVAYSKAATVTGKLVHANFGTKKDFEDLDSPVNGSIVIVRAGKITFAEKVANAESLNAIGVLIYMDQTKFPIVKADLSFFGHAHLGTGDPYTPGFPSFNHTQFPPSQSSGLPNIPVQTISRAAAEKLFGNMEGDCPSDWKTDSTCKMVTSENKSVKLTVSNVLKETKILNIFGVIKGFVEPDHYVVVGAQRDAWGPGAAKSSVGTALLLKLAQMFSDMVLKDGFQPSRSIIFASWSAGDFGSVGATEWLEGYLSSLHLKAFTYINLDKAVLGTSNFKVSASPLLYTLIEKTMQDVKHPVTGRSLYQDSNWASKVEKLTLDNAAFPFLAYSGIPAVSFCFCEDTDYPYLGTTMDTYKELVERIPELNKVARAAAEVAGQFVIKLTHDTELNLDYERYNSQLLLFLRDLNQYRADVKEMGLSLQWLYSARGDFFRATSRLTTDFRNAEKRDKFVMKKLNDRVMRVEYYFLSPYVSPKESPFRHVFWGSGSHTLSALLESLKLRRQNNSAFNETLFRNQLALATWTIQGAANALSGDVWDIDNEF


How the values were obtained:
[1] = target: T2, cynomolgus TfR (on MDCK cells) (cynomolgus, UniProt H9EXL1 1-760 (rhesus entry)); experiment: flow cytometry on MDCK cells engineered to express cynomolgus TfR, on ice, PE-labeled secondary
T2 construct: whole, on cells; also called Cyno MDCK
Method: (§1) Human endothelial line hCMEC-D3 (EMD Millipore SC066), endogenously expressing human TfR and MDCK cell line (ATCC CCL-34), engineered to express cynomolgus TfR were utilized to evaluate antibody/protein binding to cell-bound TfR. Cells were grown and maintained at submaximal confluence and detached from cultureware using Accutase cell detachment solution, washed, and allocated at 50000 cells per well for assessment of binding. Cells were treated with a viability stain then subsequently incubated with titrated concentrations of TfR binding proteins on ice. Cells were washed and binding of test antibodies or proteins was detected using a PE-labeled secondary reagent. Cells were then washed and read on the same day using a BioRad ZE5 cytometer. Analysis was performed post-acquisition in FlowJo, analyzing fluorescence of single, viable, non-debris events. EC50 values were derived by plotting geometric median PE intensity values across a given sample titration and fitting a sigmoidal (4PL) response curve in GraphPad Prism 8.3.0.

[2] = target: T3, human TfR ECD (His-tagged) (human, UniProt P02786 89-760); experiment: SPR (Biacore 8K), 37 C; TfR ECD amine-coupled to CM4 chip, TBP as analyte; multi-cycle kinetics, 2-state fit; n = 3
T3 construct: also called hTfR-ECD-6His; his-tagged hTfR-ECD
Method: (§2) Target human and cynomolgous TfR ECD's were immobilized on a CM4 chip (Cytiva P/N 29104989) using standard NHS-EDC amine coupling. The TfR binding proteins were prepared at a final concentration of 0.3, 0.1, 0.033, 0.01, 0.0033, 0.001, 0.00033, 0.0001 μM respectively by dilution of stock solution into running buffer.
(§3) Binding analysis was performed in a multi-cycle kinetics manner. Each analysis cycle consists of (1) injection of the lowest to highest concentration proteins over all Fc at 50 μL/min for 140 seconds followed by return to buffer flow for 400 seconds to monitor dissociation phase; (2) regeneration of chip surfaces with injection of 3M magnesium chloride, for 30 seconds at 100 μL/min over all cells; and (3) equilibration of chip surfaces with a 50 μL (30-sec) injection of HBS-EP+. Data were processed using standard double-referencing and fit to a 2-state binding model using Biacore 8K Evaluation software, to determine the association rate (kₒₙ, M⁻¹s⁻¹ units), dissociation rate (koff, s⁻¹ units), and Rₘₐₓ (RU units). The equilibrium dissociation constant (KD) is calculated from the relationship KD=koff/kₒₙ, and is in molar units.

human TfR (cell-bound) = target: T4, human TfR (cell-bound) (human, UniProt P02786 1-760); experiment: flow cytometry on hCMEC-D3 cells (endogenous human TfR), on ice, PE-labeled secondary
T4 construct: Endogenous receptor on hCMEC-D3 cells (stated); also called hTFR; human transferrin receptor on hCMEC-D3 cells
Method: as §1

cynomolgus TfR ECD [3] = target: T5, cynomolgus TfR ECD (cynomolgus); experiment: SPR (Biacore 8K), 37 C; TfR ECD amine-coupled to CM4 chip, TBP as analyte; multi-cycle kinetics, 2-state fit; n = 3
T5 construct: extracellular domain; amine-coupled in the 37 C assay; also called Cyno TfR; His-tagged cynomolgus TfR ECD
Method: as §2, §3

cynomolgus TfR ECD [4] = target: T1, cynomolgus TfR ECD; experiment: SPR (Biacore 8K), 25 C; His-tagged TfR ECD captured by anti-His antibody, TBP as analyte; single-cycle kinetics, 2-state fit
Method: (§4) An anti-His antibody was immobilized on a CM5 chip (Cytiva P/N 29104988) using standard NHS-EDC amine coupling on all four flow cells (Fc). Target (human or cynomolgus TfR ECD) were prepared in the running buffer at final concentration of 500 μg/mL.
(§5) Binding analysis was performed in a single-cycle kinetics manner. Each analysis cycle consists of (1) capturing the target (His-tagged human or cynomolgus TfR ECD) samples on separate flow cells (Fc2, Fc3 and Fc4); (2) injection of the lowest to highest concentration of antibodies or proteins over all Fc at 30 μL/min for 900 seconds followed by return to buffer flow for 1800 seconds to monitor dissociation phase; (3) regeneration of chip surfaces with injection of 10 mM glycine, pH 1.5, for 30 seconds at […] over all cells; and (4) equilibration of chip surfaces with a 10 μL (60-sec) injection of HBS-EP+. Data were processed using standard double-referencing and fit to a 2-state binding model using Biacore 8K Evaluation software, to determine the association rate (kₒₙ, M⁻¹s⁻¹ units), dissociation rate (koff, s⁻¹ units), and Rₘₐₓ (RU units). The equilibrium dissociation constant (KD) is calculated from the relationship KD=koff/kₒₙ, and is in molar units.

[5] = target: T3, human TfR ECD (His-tagged); experiment: as above
Method: as §4, §5
Target sequence in this assay (P02786 other isoform, or with tags, fused parts or gaps): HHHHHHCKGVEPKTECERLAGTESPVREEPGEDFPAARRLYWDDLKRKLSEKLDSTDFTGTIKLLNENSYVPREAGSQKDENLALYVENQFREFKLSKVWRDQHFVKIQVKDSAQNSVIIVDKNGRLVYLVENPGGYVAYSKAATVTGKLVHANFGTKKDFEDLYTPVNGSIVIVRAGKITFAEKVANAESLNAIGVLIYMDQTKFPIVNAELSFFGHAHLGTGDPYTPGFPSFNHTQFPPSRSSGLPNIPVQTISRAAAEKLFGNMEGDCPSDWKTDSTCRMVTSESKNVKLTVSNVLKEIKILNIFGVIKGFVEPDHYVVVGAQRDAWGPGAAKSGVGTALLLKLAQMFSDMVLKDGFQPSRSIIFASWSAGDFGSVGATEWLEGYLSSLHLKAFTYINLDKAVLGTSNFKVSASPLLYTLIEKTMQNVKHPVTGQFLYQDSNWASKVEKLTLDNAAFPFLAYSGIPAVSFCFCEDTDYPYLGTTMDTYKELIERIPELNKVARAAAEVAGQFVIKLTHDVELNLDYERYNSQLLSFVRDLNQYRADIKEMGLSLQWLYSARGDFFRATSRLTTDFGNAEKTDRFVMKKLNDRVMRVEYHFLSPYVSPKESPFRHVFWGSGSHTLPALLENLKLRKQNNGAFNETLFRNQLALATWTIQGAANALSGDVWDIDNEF

cynomolgus TfR ECD [6] = target: T1, cynomolgus TfR ECD; experiment: SPR (Biacore 8K), 37 C; TfR ECD amine-coupled to CM4 chip, TBP as analyte; multi-cycle kinetics, 2-state fit; n = 3
Method: as §2, §3

T4 sequence (P02786 whole entry): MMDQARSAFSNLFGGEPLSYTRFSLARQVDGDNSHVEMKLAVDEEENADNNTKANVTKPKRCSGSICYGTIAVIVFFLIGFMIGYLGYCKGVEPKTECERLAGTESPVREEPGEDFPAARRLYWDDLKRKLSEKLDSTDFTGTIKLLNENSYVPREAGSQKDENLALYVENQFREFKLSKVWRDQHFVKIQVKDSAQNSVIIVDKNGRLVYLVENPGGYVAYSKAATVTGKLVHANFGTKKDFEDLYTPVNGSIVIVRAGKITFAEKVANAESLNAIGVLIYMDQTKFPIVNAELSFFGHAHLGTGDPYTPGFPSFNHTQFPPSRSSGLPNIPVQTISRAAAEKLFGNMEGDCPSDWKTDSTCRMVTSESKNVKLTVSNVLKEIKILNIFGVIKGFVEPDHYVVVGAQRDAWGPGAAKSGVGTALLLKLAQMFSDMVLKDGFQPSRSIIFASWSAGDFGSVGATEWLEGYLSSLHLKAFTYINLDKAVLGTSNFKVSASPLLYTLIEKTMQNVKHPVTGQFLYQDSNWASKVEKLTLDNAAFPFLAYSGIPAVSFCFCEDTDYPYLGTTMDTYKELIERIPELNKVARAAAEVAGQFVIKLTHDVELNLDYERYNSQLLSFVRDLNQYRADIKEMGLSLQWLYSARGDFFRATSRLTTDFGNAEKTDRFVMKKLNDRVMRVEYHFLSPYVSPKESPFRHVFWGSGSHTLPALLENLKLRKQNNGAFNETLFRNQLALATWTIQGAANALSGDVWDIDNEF

Row | Binder | EC50 [1] [nM] | Kd [2] [nM] | EC50 (human TfR (cell-bound)) [nM] | Kd (cynomolgus TfR ECD [3]) [nM] | Kd (cynomolgus TfR ECD [4]) [nM] | Kd [5] [pM] | Kd (cynomolgus TfR ECD [6]) [nM]
1 | TBP14-SNCA siRNA (dsRNA No. 10 in Table 11a) (antibody, SNCA siRNA (dsRNA No. 10) conjugated through a linker at the engineered cysteine (A378C, EU numbering, by the name in Table 6b), Protein-siRNA conjugate of TBP14; also called TBP14-SNCA siRNA conjugate) heavy: EVQLVESGGGLVKPGGSLRLSCVASGFTFSSYSMNWVRQAPGKGLEWVSSISSSSSYIYYADSVKGRFTISRDNAKNSLYLQMNSLRAEDTAVYYCARRHGYSNSDAFDNWGQGTLVTVSSASTKGPSVFPLAPCSRSTSESTAALGCLVKDYFPEPVTVSWNSGALTSGVHTFPAVLQSSGLYSLSSVVTVPSSSLGTKTYTCNVDHKPSNTKVDKRVESKYGPPCPPCPAPEAAGGPSVFLFPPKPKDTLMISRTPEVTCVVVDVSQEDPEVQFNWYVDGVEVHNAKTKPREEQFNSTYRVVSVLTVLHQDWLNGKEYKCKVSNKGLPSSIEKTISKAKGQPREPQVSTLPPSQEEMTKNQVSLMCLVYGFYPSDICVEWESNGQPENNYKTTPPVLDSDGSFFLYSVLTVDKSRWQEGNVFSCSVMHEALHNHYTQKSLSLSLG light: DIQMTQSPSAMSASVGDRVTITCRASQGISHYLVWFQQKPGKVPKRLIYAASSLQSGVPSRFSGSGSGTEFTLTISSLQPEDFATYYCLQHNSYPWTFGQGTKVEIKRTVAAPSVFIFPPSDEQLKSGTASVVCLLNNFYPREAKVQWKVDNALQSGNSQESVTEQDSKDSTYSLSSTLTLSKADYEKHKVYACEVTHQGLSSPVTKSFNRGEC ESKYGPPCPPCPAPEAAGGPSVFLFPPKPKDTLMISRTPEVTCVVVDVSQEDPEVQFNWYVDGVEVHNAKTKPREEQFNSTYRVVSVLTVLHQDWLNGKEYKCKVSNKGLPSSIEKTISKAKGQPREPQVYTLPPSQGDMTKNQVQLTCLVKGFYPSDICVEWESNGQPENNYKTTPPVLDSDGSFFLASRLTVDKSRWQEGNVFSCSVMHEALHNHYTQKSLSLSLG | 225 | 541 | 298 |  |  |  | 
2 | TBP14 (TBD4-one arm heteromab, A378C) (antibody, human IgG4 S228P, kappa, F234A L235A, One-armed antibody: two heavy chains (HC1 full, HC2 Fc only) and one light chain; no LC2) heavy: EVQLVESGGGLVKPGGSLRLSCVASGFTFSSYSMNWVRQAPGKGLEWVSSISSSSSYIYYADSVKGRFTISRDNAKNSLYLQMNSLRAEDTAVYYCARRHGYSNSDAFDNWGQGTLVTVSSASTKGPSVFPLAPCSRSTSESTAALGCLVKDYFPEPVTVSWNSGALTSGVHTFPAVLQSSGLYSLSSVVTVPSSSLGTKTYTCNVDHKPSNTKVDKRVESKYGPPCPPCPAPEAAGGPSVFLFPPKPKDTLMISRTPEVTCVVVDVSQEDPEVQFNWYVDGVEVHNAKTKPREEQFNSTYRVVSVLTVLHQDWLNGKEYKCKVSNKGLPSSIEKTISKAKGQPREPQVSTLPPSQEEMTKNQVSLMCLVYGFYPSDICVEWESNGQPENNYKTTPPVLDSDGSFFLYSVLTVDKSRWQEGNVFSCSVMHEALHNHYTQKSLSLSLG light: DIQMTQSPSAMSASVGDRVTITCRASQGISHYLVWFQQKPGKVPKRLIYAASSLQSGVPSRFSGSGSGTEFTLTISSLQPEDFATYYCLQHNSYPWTFGQGTKVEIKRTVAAPSVFIFPPSDEQLKSGTASVVCLLNNFYPREAKVQWKVDNALQSGNSQESVTEQDSKDSTYSLSSTLTLSKADYEKHKVYACEVTHQGLSSPVTKSFNRGEC ESKYGPPCPPCPAPEAAGGPSVFLFPPKPKDTLMISRTPEVTCVVVDVSQEDPEVQFNWYVDGVEVHNAKTKPREEQFNSTYRVVSVLTVLHQDWLNGKEYKCKVSNKGLPSSIEKTISKAKGQPREPQVYTLPPSQGDMTKNQVQLTCLVKGFYPSDICVEWESNGQPENNYKTTPPVLDSDGSFFLASRLTVDKSRWQEGNVFSCSVMHEALHNHYTQKSLSLSLG |  | 154 |  | 300 |  |  | 
3 | TBP1 (TBD1 Fab-hIgG4PAA Fc) (antibody, V domains shown) VH: EVQLVESGGGLVKPGGSLRLSCVASGFTFSSYSMNWVRQAPGKGLEWVSSISRSSSYIYYADSVKGRFTISRDNAKNSLYLQMNSLRAEDTAVYYCAREHGYSNSDAFDIWGQGTLVTVSS VL: DIQMTQSPSAMSASVGDRVTITCRASQGISNYLAWFQQKPGKVPKRLIYAASSLQSGVPSRFSGSGSGTEFTLTISSLQPEDFATYYCLQHNSYPRTFGQGTKVEIKR | 510 | 0.966 | 0.47 |  | 145 | 110 | 
4 | TBP3 (TBD3 Fab-hIgG4PAA Fc) (antibody, V domains shown, Fab-Fc format, one HC and one LC) VH: EVQLVESGGGLVKPGGSLRLSCVASGFTFSSYSMNWVRQAPGKGLEWVSSISRSSSYIYYADSVKGRFTISRDNAKNSLYLQMNSLRAEDTAVYYCARIHGYSNSDAFDIWGQGTLVTVSS VL: DIQMTQSPSAMSASVGDRVTITCRASQGISHYLVWFQQKPGKVPKRLIYAASSLQSGVPSRFSGSGSGTEFTLTISSLQPEDFATYYCLQHNSYPRTFGQGTKVEIKR | 0.15 | 0.005 | 0.14 |  | 0.015 | 0.048 | 0.254
5 | TBP5 (TBD5 Fab-hIgG4PAA Fc) (antibody, V domains shown, Fab-Fc format, one HC and one LC) VH: EVQLVESGGGLVQPGGSLRLSCAASGFTFRTYWMHWVRQAPGKGLLWVSRINGDGSRTNYADSVKGRFTISRDNAKKTLYLQMNSLRAEDTAVYFCARSSYAFDVWGQGTMVTVSS VL: DVVMTQTPLSLPVTPGEPASISCRSSQSLLDSDDGSTYLDWYLQKPGQSPQLLIYLLSNRASGVPDRFSGSGSGTVFTLKISSVEAADVGVYYCMQRIEFPLTFGGGTKVEIKR | 1.63 | 4.25 | 4.83 |  | 1.47 | 590 | 156
6 | TBP6 (TBD6 Fab-hIgG4PAA Fc) (antibody, V domains shown, Fab-Fc format, one HC and one LC) VH: EVQLVESGGGLVQPGGSLRLSCAASGFTFRTYWMHWVRQAPGKGLVWVSRINSDGSRTNYADSVKGRFTISRDNAKNTLYLQMNSLRAEDTAVYYCARSSYAFDVWGQGTLVTVSS VL: DIVMTQTPLSLPVTPGEPASISCRSSQSLLDSDDGSTYLDWYLQKPGQSPQLLIYLLSNRASGVPDRFSGSGSGTDFTLKISRVEAEDVGVYYCMQRIEFPLTFGGGTKVEIKR | 0.76 | 2.25 | 1.2 |  | 7.7 | 60 | 92.5
